Measurements as given in publication PMC11758712.

Tests used:
[1] = target: monomeric ACE2 (a.a 19-611), C-terminally His-tagged (human) (UniProt Q9BYF1); experiment: mass photometry
[2] = target: HEK-derived SARS-CoV-2 Wuhan-Hu-1 spike receptor-binding domain (RBDHEK) (SARS-CoV-2 (Wuhan-Hu-1)) (UniProt P0DTC2); experiment: mass photometry

Sequence of monomeric ACE2 (a.a 19-611), C-terminally His-tagged (human) (Q9BYF1 19-611): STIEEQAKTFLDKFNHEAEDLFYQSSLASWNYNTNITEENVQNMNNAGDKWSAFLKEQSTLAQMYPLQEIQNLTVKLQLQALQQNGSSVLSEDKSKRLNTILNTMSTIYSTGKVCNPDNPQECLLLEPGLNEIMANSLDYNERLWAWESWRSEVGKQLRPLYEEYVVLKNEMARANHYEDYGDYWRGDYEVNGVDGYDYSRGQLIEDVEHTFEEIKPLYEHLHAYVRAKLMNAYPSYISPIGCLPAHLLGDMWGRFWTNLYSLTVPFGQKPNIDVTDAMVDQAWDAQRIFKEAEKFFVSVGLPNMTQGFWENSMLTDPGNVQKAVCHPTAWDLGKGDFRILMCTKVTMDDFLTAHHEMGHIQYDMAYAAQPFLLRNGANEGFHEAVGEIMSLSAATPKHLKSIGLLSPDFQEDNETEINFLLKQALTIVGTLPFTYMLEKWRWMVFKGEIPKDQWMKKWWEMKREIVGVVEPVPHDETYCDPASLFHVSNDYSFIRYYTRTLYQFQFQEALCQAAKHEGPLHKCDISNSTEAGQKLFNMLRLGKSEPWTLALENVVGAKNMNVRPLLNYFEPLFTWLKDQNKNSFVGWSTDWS

HEK-derived SARS-CoV-2 Wuhan-Hu-1 spike receptor-binding domain (RBDHEK) (from UniProt P0DTC2 319-541) (domain or fragment)
binding occupancy [1]: 33%
percent dimeric species [2]: 19.6%
stoichiometry N [2]: 2
